We go through 68 variants from the supplement of paper PMC7125110.

± gives the standard error. Variants at the floor of the assay were thinned out. Bounds are passed on as bounds.

B1: glmS ribozyme (parent)
chain: AUAAAAGCGCCAGAACUACAGAAAUGUAGUUGACGAGGAGGAGGUUUAUCGAAUUUUCGGCGGAUGCCUCCAAA

Common to all, as to details: with glucosamine-6-phosphate
The variants in series [1] derive from B1. Kind of series: self-cleavage kobs at 640 uM GlcN6P; higher = faster cleavage; RNA array. In a few lines: (§1)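 Glucosamine-6-phosphate (40 μM to 10 mM) in HEPES/KCl/Mg(OAc)2 buffer was flowed over sequenced MiSeq chips, and tiles were imaged over ~14 h. Barcoded ribozyme variants there had been transcribed in situ by E. coli RNA polymerase and were tracked through a hybridised Cy3 probe at 37 °C. One- or two-exponential decay fits to per-tile medians, normalised to baseline and to non-cleaving reference variants, gave kobs. kcat and KM came from weighted Michaelis–Menten fits across concentrations.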

Variants of B1 are the subject of series [2]. Kind of series: self-cleavage kobs at 2500 uM GlcN6P; higher = faster cleavage; RNA array. In a few lines: as §1
In series [3] the parent is B1. Nature of the series: self-cleavage kobs at 10000 uM GlcN6P; higher = faster cleavage; RNA array. In a few lines:
as §1

Turning to A12C G29A G37A, the “self-cleavage kobs at 640 uM GlcN6P” value in series [1] came out at 0.000302 ± 8.2e-05 s⁻¹. Besides, in series [2], the “self-cleavage kobs at 2500 uM GlcN6P” value amounted to 0.000142 ± 5.2e-05 s⁻¹.
On to C10U A14U C16U C68G, for which the “self-cleavage kobs at 640 uM GlcN6P” value in series [1] is 0.00169 ± 0.00051 s⁻¹. For the same variant, in series [2], the “self-cleavage kobs at 2500 uM GlcN6P” value was found to be 0.000319 ± 0.00011 s⁻¹.
G51C U56G: the “self-cleavage kobs at 640 uM GlcN6P” value in series [1] was < 1e-05 s⁻¹. The “self-cleavage kobs at 2500 uM GlcN6P” value in series [2] is < 1e-05 s⁻¹. The “self-cleavage kobs at 10000 uM GlcN6P” value in series [3] is < 1e-05 s⁻¹.
As to A12C U30C A39U, the “self-cleavage kobs at 640 uM GlcN6P” value in series [1] is 0.000221 ± 4.3e-05 s⁻¹. In series [2], the “self-cleavage kobs at 2500 uM GlcN6P” value came out at 0.000452 ± 0.00012 s⁻¹.
As to G32C G44C A48C C67G, the “self-cleavage kobs at 640 uM GlcN6P” value in series [1] is < 1e-05 s⁻¹. Moreover, in series [2], the “self-cleavage kobs at 2500 uM GlcN6P” value is < 1e-05 s⁻¹.
Turning to A6U U54A, the “self-cleavage kobs at 640 uM GlcN6P” value in series [1] was 9.76e-05 ± 2e-05 s⁻¹. In addition, the “self-cleavage kobs at 2500 uM GlcN6P” value in series [2] stood at 0.000837 ± 0.00027 s⁻¹. Moreover, the “self-cleavage kobs at 10000 uM GlcN6P” value in series [3] is 0.000256 ± 4.4e-05 s⁻¹.
Turning to G35U G38U C67A, the “self-cleavage kobs at 640 uM GlcN6P” value in series [1] is < 1e-05 s⁻¹.
In the case of A39G G40U C58G, the “self-cleavage kobs at 640 uM GlcN6P” value in series [1] is < 1e-05 s⁻¹.
For the variant G9C C11G, the “self-cleavage kobs at 640 uM GlcN6P” value in series [1] was < 1e-05 s⁻¹. For the same variant, in series [2], the “self-cleavage kobs at 2500 uM GlcN6P” value was < 1e-05 s⁻¹. Besides, in series [3], the “self-cleavage kobs at 10000 uM GlcN6P” value was < 1e-05 s⁻¹.
Consider C16U U46C C50U, for which the “self-cleavage kobs at 640 uM GlcN6P” value in series [1] was < 1e-05 s⁻¹.
Still for that read-out and setting: the value for A33U C34U A36C U69G was 0.000124 ± 6e-05 s⁻¹.
For U65G G66C, in series [1], the “self-cleavage kobs at 640 uM GlcN6P” value amounted to 0.000223 ± 4.9e-05 s⁻¹. For the same variant, the “self-cleavage kobs at 10000 uM GlcN6P” value in series [3] stood at 0.00137 ± 0.00016 s⁻¹.
Take C50U C61A A64U C67G: in series [1], the “self-cleavage kobs at 640 uM GlcN6P” value was 8.84e-05 ± 4.2e-05 s⁻¹. The “self-cleavage kobs at 2500 uM GlcN6P” value in series [2] is 9.68e-05 ± 4.1e-05 s⁻¹.
G7C C10U G43U: the “self-cleavage kobs at 640 uM GlcN6P” value in series [1] is < 1e-05 s⁻¹.
For the variant G7U U55G U57C, the “self-cleavage kobs at 640 uM GlcN6P” value in series [1] is < 1e-05 s⁻¹. For the same variant, the “self-cleavage kobs at 2500 uM GlcN6P” value in series [2] was < 1e-05 s⁻¹. Further, the “self-cleavage kobs at 10000 uM GlcN6P” value in series [3] was < 1e-05 s⁻¹.
For C10G G35A A42C, the “self-cleavage kobs at 640 uM GlcN6P” value in series [1] was < 1e-05 s⁻¹. In addition, the “self-cleavage kobs at 2500 uM GlcN6P” value in series [2] was < 1e-05 s⁻¹.
As for A6U G29C U56A, in series [1], the “self-cleavage kobs at 640 uM GlcN6P” value is < 1e-05 s⁻¹.
Still for that read-out and setting: the value for A6C C8G C11A A52C U57G G63C U69G was 0.0016 ± 0.00077 s⁻¹; that for A12C A48C G60C G62C C68A was < 1e-05 s⁻¹.
U47A A48U C58G: in series [1], the “self-cleavage kobs at 640 uM GlcN6P” value is < 1e-05 s⁻¹. In addition, in series [2], the “self-cleavage kobs at 2500 uM GlcN6P” value was < 1e-05 s⁻¹.
Consider U57G G62C C68U C70G, for which, in series [1], the “self-cleavage kobs at 640 uM GlcN6P” value came to 4.22e-05 ± 2e-05 s⁻¹.
Same read-out and setting: next, G13C U31G C61U U69C: < 1e-05 s⁻¹; G41C C50U G59U: < 1e-05 s⁻¹.
Regarding G35U G40A A52U, in series [1], the “self-cleavage kobs at 640 uM GlcN6P” value was < 1e-05 s⁻¹. In series [2], the “self-cleavage kobs at 2500 uM GlcN6P” value was < 1e-05 s⁻¹.
With A36U A39U C71U, the “self-cleavage kobs at 640 uM GlcN6P” value in series [1] is < 1e-05 s⁻¹.
For A33C A53U G59A U69G, the “self-cleavage kobs at 640 uM GlcN6P” value in series [1] stood at 0.000208 ± 8.8e-05 s⁻¹.
Same read-out and setting: next, G41A U47A A52C: < 1e-05 s⁻¹; A15U U45A A53C: 0.000941 ± 0.00022 s⁻¹.
Consider A33U G60A A64G, for which the “self-cleavage kobs at 640 uM GlcN6P” value in series [1] was < 1e-05 s⁻¹. The “self-cleavage kobs at 2500 uM GlcN6P” value in series [2] is < 1e-05 s⁻¹.
For G40A G41A A42U C68G, the “self-cleavage kobs at 640 uM GlcN6P” value in series [1] is < 1e-05 s⁻¹. The “self-cleavage kobs at 2500 uM GlcN6P” value in series [2] was < 1e-05 s⁻¹.
With C8U G13A G66U, the “self-cleavage kobs at 640 uM GlcN6P” value in series [1] was < 1e-05 s⁻¹. Besides, the “self-cleavage kobs at 2500 uM GlcN6P” value in series [2] was < 1e-05 s⁻¹.
With C16A G51U C67G, in series [1], the “self-cleavage kobs at 640 uM GlcN6P” value was found to be 0.000109 ± 4.2e-05 s⁻¹.
Same read-out and setting: next, A12C U47C U65C: < 1e-05 s⁻¹.
Consider A6C G35U C71A, for which the “self-cleavage kobs at 640 uM GlcN6P” value in series [1] was < 1e-05 s⁻¹. Further, in series [2], the “self-cleavage kobs at 2500 uM GlcN6P” value is < 1e-05 s⁻¹.
With G35C G44C, in series [1], the “self-cleavage kobs at 640 uM GlcN6P” value was < 1e-05 s⁻¹. The “self-cleavage kobs at 10000 uM GlcN6P” value in series [3] was < 1e-05 s⁻¹.
G37A G43U G62U G66C C67A: the “self-cleavage kobs at 640 uM GlcN6P” value in series [1] is < 1e-05 s⁻¹. In series [2], the “self-cleavage kobs at 2500 uM GlcN6P” value was < 1e-05 s⁻¹. The “self-cleavage kobs at 10000 uM GlcN6P” value in series [3] was < 1e-05 s⁻¹.
As for U31G G44A C68U, the “self-cleavage kobs at 640 uM GlcN6P” value in series [1] is < 1e-05 s⁻¹.
On the same count and under the same terms, the value for A39G U46C C71U was 0.00179 ± 0.00048 s⁻¹.
G44U A48U C67U: the “self-cleavage kobs at 640 uM GlcN6P” value in series [1] was 0.000119 ± 4.8e-05 s⁻¹. Further, the “self-cleavage kobs at 2500 uM GlcN6P” value in series [2] was determined as 0.000418 ± 0.00012 s⁻¹.
In the case of U31G C58G A64U, the “self-cleavage kobs at 640 uM GlcN6P” value in series [1] is < 1e-05 s⁻¹.
In the case of G13U C34G U45C U47A, in series [1], the “self-cleavage kobs at 640 uM GlcN6P” value was < 1e-05 s⁻¹. For the same variant, in series [2], the “self-cleavage kobs at 2500 uM GlcN6P” value was < 1e-05 s⁻¹.
G29C G51A C67G C68G U69G: the “self-cleavage kobs at 640 uM GlcN6P” value in series [1] is 5.75e-05 ± 2.7e-05 s⁻¹.
On the same count and under the same terms, the value for C50A C67U C70G was 6.04e-05 ± 2.3e-05 s⁻¹.
Same read-out and setting: the value for C11U A33C U55G C58U was < 1e-05 s⁻¹; that for G7A A15U A53G was < 1e-05 s⁻¹.
Regarding A12C G35A A36C U56G G60C, the “self-cleavage kobs at 640 uM GlcN6P” value in series [1] was < 1e-05 s⁻¹. Also, the “self-cleavage kobs at 2500 uM GlcN6P” value in series [2] was < 1e-05 s⁻¹.
For U45G U54C C61U, the “self-cleavage kobs at 640 uM GlcN6P” value in series [1] was < 1e-05 s⁻¹. Further, the “self-cleavage kobs at 2500 uM GlcN6P” value in series [2] was < 1e-05 s⁻¹.
Turning to G29U A48U A53U G63A, the “self-cleavage kobs at 640 uM GlcN6P” value in series [1] is < 1e-05 s⁻¹. The “self-cleavage kobs at 2500 uM GlcN6P” value in series [2] was < 1e-05 s⁻¹.
For A42C U46G U49A, the “self-cleavage kobs at 640 uM GlcN6P” value in series [1] is < 1e-05 s⁻¹.
On the same count and under the same terms, the value for C11G U55G G59C was 0.00067 ± 0.00021 s⁻¹; that for G29C G59U C71U was < 1e-05 s⁻¹.
The same measure, in the same setting: next, C16A G66U C68A: 0.0001 ± 3.2e-05 s⁻¹; C10U G32A G59A G60A: < 1e-05 s⁻¹.
On the same count and under the same terms, the value for A52C G62A G63C was < 1e-05 s⁻¹.
In the case of C16U A42U C58A G59C G60C, in series [1], the “self-cleavage kobs at 640 uM GlcN6P” value is < 1e-05 s⁻¹.
Take U30A A36U C70G: the “self-cleavage kobs at 640 uM GlcN6P” value in series [1] worked out at 0.000179 ± 6.1e-05 s⁻¹. For the same variant, the “self-cleavage kobs at 2500 uM GlcN6P” value in series [2] amounted to 0.000108 ± 4.4e-05 s⁻¹. Moreover, the “self-cleavage kobs at 10000 uM GlcN6P” value in series [3] came to 3.78e-05 ± 1.7e-05 s⁻¹.
Regarding G7U A14C G37C, the “self-cleavage kobs at 640 uM GlcN6P” value in series [1] is < 1e-05 s⁻¹. Also, in series [2], the “self-cleavage kobs at 2500 uM GlcN6P” value was < 1e-05 s⁻¹.
As for G38C G44U G51C A52C C71U, the “self-cleavage kobs at 640 uM GlcN6P” value in series [1] was < 1e-05 s⁻¹.
A33C G35A G41A: the “self-cleavage kobs at 640 uM GlcN6P” value in series [1] was < 1e-05 s⁻¹. The “self-cleavage kobs at 2500 uM GlcN6P” value in series [2] was < 1e-05 s⁻¹.
On to C11G A15C G32U A33C C50U C71A, for which, in series [1], the “self-cleavage kobs at 640 uM GlcN6P” value amounted to 0.000149 ± 4e-05 s⁻¹.
Consider G7U A33U G37U G63A, for which, in series [1], the “self-cleavage kobs at 640 uM GlcN6P” value was < 1e-05 s⁻¹. The “self-cleavage kobs at 2500 uM GlcN6P” value in series [2] was < 1e-05 s⁻¹.
Take G9U C10G C11A: the “self-cleavage kobs at 640 uM GlcN6P” value in series [1] is < 1e-05 s⁻¹.
On the same count and under the same terms, next, A12U G59C U69A: 0.00122 ± 0.00048 s⁻¹.
Consider G7A G44A U46C A48U, for which the “self-cleavage kobs at 640 uM GlcN6P” value in series [1] was < 1e-05 s⁻¹. For the same variant, the “self-cleavage kobs at 2500 uM GlcN6P” value in series [2] was < 1e-05 s⁻¹.
On to G37U A48G C70U, for which, in series [1], the “self-cleavage kobs at 640 uM GlcN6P” value was < 1e-05 s⁻¹.
As for G7A G44C C50U, the “self-cleavage kobs at 640 uM GlcN6P” value in series [1] is < 1e-05 s⁻¹. Moreover, the “self-cleavage kobs at 2500 uM GlcN6P” value in series [2] is < 1e-05 s⁻¹.
For G13U A14U G44C A52G C58G, the “self-cleavage kobs at 640 uM GlcN6P” value in series [1] is < 1e-05 s⁻¹.
The same measure, in the same setting: next, G13C G44C G60A: < 1e-05 s⁻¹.
